The labels stand for the following.
B1: OR4K15 (parent)
chain: GUUAACGGUCAUAGGCCAUGGAAACUAGGAGCACCAUUUCGCUGCCAGUGAAGAAAUGAACAAAGAAAAUCUGGGCCAGGCAGGCAUCAAAAGAAAUAGUCUUGCGCUCAACCAGAAAGUCUGUAAUCAUUUUAAGGGUA

Drawing on the RNAGym collection of RNA variant scans (doi:10.7554/elife.90254), this text covers self-cleavage for 167 variants.

The variants in this data set derive from B1. Briefly: self-cleavage, relative activity (ratio to wild type); higher = more cleavage; in vitro, sequencing; the parent is a self-cleaving ribozyme.
As to C32U A89G, the self-cleavage is 0.89.

As to G31A A91U, the self-cleavage was determined as 1.99.

For the variant G31A A52G, the self-cleavage amounted to 2.05.

Consider A33G G74U, for which the self-cleavage worked out at 0.19.

In the case of C34G U132C, the self-cleavage was determined as 2.44.

For the variant A33U G104A, the self-cleavage was determined as 0.01.

For A33G A95G, the self-cleavage turned out to be 1.48.

A33C U127C: the self-cleavage was found to be 1.38.

Take G31A U103C: the self-cleavage was determined as 0.46.

Consider A30U A89U, for which the self-cleavage worked out at 1.55.

In the case of C34U A62G, the self-cleavage is 1.25.

Regarding C34U A91G, the self-cleavage amounted to 1.1.

Regarding A33U A92G, the self-cleavage was 1.86.

In the case of C34G A67G, the self-cleavage was 1.12.

As for A30G U120C, the self-cleavage is 1.04.

Turning to A30G U120A, the self-cleavage stood at 1.3.

C32A U108C: the self-cleavage came out at 0.03.

As to A30G U132G, the self-cleavage stood at 0.69.

Turning to C34U U103A, the self-cleavage came out at 0.44.

Turning to C34U U103G, the self-cleavage was 0.04.

In the case of A33G A55G, the self-cleavage is 0.85.

With A33U A51C, the self-cleavage was 2.09.

Consider A33U A51G, for which the self-cleavage came to 1.97.

On to A33U U122C, for which the self-cleavage was 1.02.

In the case of A33U U122A, the self-cleavage is 2.69.

On to C35U A117G, for which the self-cleavage worked out at 1.25.

Consider A33C A59G, for which the self-cleavage amounted to 1.39.

For the variant A33C A60G, the self-cleavage was found to be 1.57.

G31C U70A: the self-cleavage came out at 0.94.

Regarding A33G A98G, the self-cleavage came to 0.77.

Take A33U C128A: the self-cleavage was determined as 0.48.

For A33U C128U, the self-cleavage was determined as 1.3.

With A30G U57A, the self-cleavage was determined as 1.15.

In the case of A30G U57G, the self-cleavage came out at 1.24.

Regarding A30U G73U, the self-cleavage was 0.17.

For the variant C35A C121A, the self-cleavage came out at 1.53.

For C32U U87C, the self-cleavage stood at 1.36.

On to A33U A69G, for which the self-cleavage was determined as 1.71.

For the variant A33G A47G, the self-cleavage is 0.32.

Take A33G A47U: the self-cleavage stood at 0.57.

As to A33U A86G, the self-cleavage was 1.33.

As for A33G A67G, the self-cleavage came to 1.06.

Turning to C34U A55G, the self-cleavage was determined as 2.06.

On to A33C A111G, for which the self-cleavage turned out to be 0.03.

On to A30G U38G, for which the self-cleavage is 1.4.

For the variant C35A A66G, the self-cleavage amounted to 0.76.

As for G31A A56G, the self-cleavage is 1.41.

Turning to A33U A36G, the self-cleavage came out at 2.32.

For the variant A30G G115U, the self-cleavage was 0.21.

With A30U A62G, the self-cleavage was 1.16.

For A33G A135G, the self-cleavage is 0.69.

Consider C32U A54G, for which the self-cleavage is 1.37.

Take C34U A59U: the self-cleavage is 0.75.

In the case of C32U U139C, the self-cleavage was determined as 1.64.

Turning to A33C U39A, the self-cleavage was found to be 2.06.

For the variant C32U U124C, the self-cleavage is 1.15.

Regarding A33U U130C, the self-cleavage amounted to 2.

Consider A30U U122C, for which the self-cleavage came out at 1.35.

For the variant A33G A91U, the self-cleavage is 0.94.

Regarding G31U A110G, the self-cleavage was found to be 0.24.

In the case of G31C U102C, the self-cleavage amounted to 1.92.

In the case of G31A A90G, the self-cleavage turned out to be 1.8.

With A30U U108C, the self-cleavage worked out at 0.02.

Turning to C35U A56G, the self-cleavage was determined as 1.13.

As for A30U U130C, the self-cleavage came out at 0.34.

Regarding C34U C76U, the self-cleavage was found to be 0.12.

Take C35U C88A: the self-cleavage came out at 1.16.

For the variant C34U G41U, the self-cleavage amounted to 1.82.

Consider A33G U102A, for which the self-cleavage was 0.34.

Turning to A33G U102C, the self-cleavage was 1.44.

Regarding A33U U139G, the self-cleavage amounted to 2.5.

With A33U U139C, the self-cleavage amounted to 1.86.

Regarding A33G U100A, the self-cleavage came to 0.28.

On to G31A A82U, for which the self-cleavage turned out to be 0.14.

For C35U A95C, the self-cleavage turned out to be 0.87.

As for A33U A135U, the self-cleavage came out at 1.79.

In the case of C32U A63G, the self-cleavage turned out to be 1.39.

With A33G A63G, the self-cleavage was found to be 0.45.

For A33G A63U, the self-cleavage is 0.76.

In the case of C34A U103C, the self-cleavage was 0.77.

Turning to C34U U120G, the self-cleavage was determined as 0.94.

Take A30G U131C: the self-cleavage is 0.95.

With A30G U70C, the self-cleavage stood at 0.75.

Take A30U A91U: the self-cleavage came to 0.83.

In the case of C34U A129G, the self-cleavage amounted to 0.51.

Take A33G A59G: the self-cleavage turned out to be 0.98.

A33G A54G: the self-cleavage amounted to 1.06.

For A33G A54C, the self-cleavage was determined as 0.95.

With A33C A68U, the self-cleavage was determined as 2.07.

Regarding A33C U49C, the self-cleavage turned out to be 1.93.

For the variant A33G G83U, the self-cleavage worked out at 0.24.

As for A33U U43C, the self-cleavage amounted to 0.26.

For A33U A89G, the self-cleavage stood at 1.46.

In the case of A33C A63G, the self-cleavage amounted to 1.98.

On to A30U C101A, for which the self-cleavage was 0.25.

A30U G119A: the self-cleavage turned out to be 2.38.

Take A33G U108A: the self-cleavage is 0.02.

With A33G U108C, the self-cleavage amounted to 0.02.

Take C34U A96G: the self-cleavage turned out to be 2.68.

In the case of A30U A59U, the self-cleavage stood at 1.6.

As for A33U A118C, the self-cleavage came to 1.06.

As for A33U A118G, the self-cleavage was determined as 0.91.

Consider C35U, for which the self-cleavage is 1.06.

For the variant C35G, the self-cleavage came to 1.34.

As for C35A, the self-cleavage was 1.58.

For A30G U87A, the self-cleavage is 0.88.

Consider A33G U37C, for which the self-cleavage came to 0.74.

With A33G U37A, the self-cleavage amounted to 1.02.

Turning to C35U A64G, the self-cleavage was 1.

For the variant G31C A55U, the self-cleavage was 1.76.

For C34A U43A, the self-cleavage stood at 1.8.

Regarding C32U C105U, the self-cleavage stood at 0.18.

As for G31U A82G, the self-cleavage stood at 0.19.

G31U A82U: the self-cleavage came out at 0.27.

In the case of G31U A68G, the self-cleavage worked out at 1.26.

With A33G U120C, the self-cleavage is 0.53.

A30G U43A: the self-cleavage is 1.01.

Consider A30G U43C, for which the self-cleavage came out at 1.39.

Take G31A A54G: the self-cleavage is 1.21.

As to A33G A94G, the self-cleavage turned out to be 0.75.

Regarding G31A, the self-cleavage turned out to be 1.52.

G31C: the self-cleavage amounted to 1.79.

As for G31U, the self-cleavage came out at 1.7.

For A30U A135U, the self-cleavage turned out to be 1.23.

A33G A111U: the self-cleavage is 0.06.

As for A33G A129U, the self-cleavage came to 0.39.

Regarding A33G A129G, the self-cleavage was 0.35.

Turning to G31C A90G, the self-cleavage stood at 1.73.

On to A30G G31C, for which the self-cleavage stood at 2.

On to A30U U57C, for which the self-cleavage was found to be 1.31.

Consider A30U U57A, for which the self-cleavage stood at 1.02.

As for A33U G41A, the self-cleavage came to 1.52.

Regarding C34U U39C, the self-cleavage stood at 1.5.

As to C34U U131C, the self-cleavage stood at 0.84.

For the variant A33C A116G, the self-cleavage is 0.76.

With A33G A78U, the self-cleavage stood at 0.14.

For the variant A33G A96U, the self-cleavage was determined as 1.14.

Regarding A33G A96C, the self-cleavage is 0.76.

Consider C34U U130C, for which the self-cleavage is 1.44.

With A33C U57A, the self-cleavage turned out to be 1.1.

For the variant G31A U87A, the self-cleavage was found to be 1.76.

A33U A82U: the self-cleavage is 0.23.

As for C34A A51G, the self-cleavage amounted to 1.27.

With A30G U127C, the self-cleavage worked out at 0.97.

On to C35U U38C, for which the self-cleavage was determined as 0.61.

As for A30G G53C, the self-cleavage worked out at 1.95.

C32A G79A: the self-cleavage worked out at 0.17.

On to C35U A126G, for which the self-cleavage came out at 0.58.

Take A33G U43A: the self-cleavage is 1.32.

Consider C32U A118G, for which the self-cleavage came to 1.44.

For A33G A140G, the self-cleavage was 1.26.

For the variant A33G A140U, the self-cleavage came to 0.97.

As to C34U U124A, the self-cleavage is 0.3.

Regarding A33U U108C, the self-cleavage is 0.05.

For A33G A92C, the self-cleavage turned out to be 0.81.

Turning to A33G A92G, the self-cleavage came out at 1.01.

In the case of A30U U131C, the self-cleavage was 1.07.

Consider C34U U70C, for which the self-cleavage was found to be 0.23.

C35A A94G: the self-cleavage came to 2.34.

For the variant A33G A68G, the self-cleavage is 1.04.

For A33G A68U, the self-cleavage is 1.02.

With A33C A91G, the self-cleavage stood at 1.57.

Turning to C34U C128A, the self-cleavage was determined as 1.3.

Regarding C34U A95G, the self-cleavage amounted to 0.45.

For A33G G93A, the self-cleavage amounted to 1.14.

For A30U A125G, the self-cleavage came to 0.5.

Regarding C34A U102A, the self-cleavage stood at 1.09.
